These are literature values, as cited in PMC3150215.

Where two headings read alike, the source gives them in different places.

Series [1] has as its target Capping protein (Mus musculus) (UniProt P47753).
Series [2] shares this target. The source holds these as a separate data set.

Take “CARMIL CBR115 CBR115 (from UniProt Q6EDY6)”: the Kd in series [1] is 1.5 nM.

Turning to CD2AP 474-513 (from UniProt Q9Y5K6), in series [2], the Kd is 6 nM.
